Measurements reported in the supplement of paper PMC9112550, “Optimization of the antimicrobial peptide Bac7 by deep mutational scanning” (BMC Biology, 2022).
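Note: peptides expressed intracellularly from a pBAD plasmid library in pooled LB shake-flask culture, induced with 0.3% L-arabinose, DNA abundance read by NGS, three biological replicates, DESeq2 with apeglm shrinkage.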

These sequences were tested on Escherichia coli TOP10 (assay: shrunken log2 fold change of peptide-encoding DNA abundance (4.5 h post-induction vs induction); higher = less antimicrobial activity (less host growth inhibition)). Details: time post-induction: 4.5 h; library: site-saturation at positions 5, 18, 19, 20.
With RRIRSRPPRLPRPRPRPHNAPRP the “shrunken log2 fold change” value was -0.197. For RRIRSRPPRLPRPRPRPHNNPRP, the “shrunken log2 fold change” value was -0.751. For RRIRSRPPRLPRPRPRPHPLPRP, the “shrunken log2 fold change” value was -0.00402. In the case of RRIRSRPPRLPRPRPRPHPWPRP, the “shrunken log2 fold change” value is reported as -0.0172. RRIRSRPPRLPRPRPRPHTEPRP was tested, and the “shrunken log2 fold change” value was -0.599. With RRIRSRPPRLPRPRPRPHTLPRP the “shrunken log2 fold change” value was -0.116. In the case of RRIRSRPPRLPRPRPRPHVAPRP, the “shrunken log2 fold change” value is reported as -0.136. With RRIRSRPPRLPRPRPRPHVTPRP the “shrunken log2 fold change” value was -0.232. In the case of RRIRSRPPRLPRPRPRPHVYPRP, the “shrunken log2 fold change” value is reported as -0.355. RRIRSRPPRLPRPRPRPHWHPRP was tested, and the “shrunken log2 fold change” value was -0.124. In the case of RRIRSRPPRLPRPRPRPHWSPRP, the “shrunken log2 fold change” value is reported as -0.0455. In the case of RRIRSRPPRLPRPRPRPHYIPRP, the “shrunken log2 fold change” value is reported as -0.556. In the case of RRIRSRPPRLPRPRPRPIAFPRP, the “shrunken log2 fold change” value is reported as -0.388. In the case of RRIRSRPPRLPRPRPRPICCPRP, the “shrunken log2 fold change” value is reported as -0.0929. With RRIRSRPPRLPRPRPRPICEPRP the “shrunken log2 fold change” value was 0.0675. In the case of RRIRSRPPRLPRPRPRPICRPRP, the “shrunken log2 fold change” value is reported as -0.0192. In the case of RRIRSRPPRLPRPRPRPIDNPRP, the “shrunken log2 fold change” value is reported as -0.163. With RRIRSRPPRLPRPRPRPIEWPRP the “shrunken log2 fold change” value was 0.0274. For RRIRSRPPRLPRPRPRPIFAPRP, the “shrunken log2 fold change” value was 0.192. In the case of RRIRSRPPRLPRPRPRPIKAPRP, the “shrunken log2 fold change” value is reported as 0.0326. With RRIRSRPPRLPRPRPRPIKIPRP the “shrunken log2 fold change” value was -0.209. RRIRSRPPRLPRPRPRPILAPRP was tested, and the “shrunken log2 fold change” value was -0.162. In the case of RRIRSRPPRLPRPRPRPILKPRP, the “shrunken log2 fold change” value is reported as -0.469. RRIRSRPPRLPRPRPRPILRPRP was tested, and the “shrunken log2 fold change” value was -0.0847. For RRIRSRPPRLPRPRPRPILYPRP, the “shrunken log2 fold change” value was -0.481. In the case of RRIRSRPPRLPRPRPRPINGPRP, the “shrunken log2 fold change” value is reported as -0.00748. With RRIRSRPPRLPRPRPRPIPCPRP the “shrunken log2 fold change” value was -0.297. RRIRSRPPRLPRPRPRPIQAPRP was tested, and the “shrunken log2 fold change” value was -0.0793. For RRIRSRPPRLPRPRPRPIQDPRP, the “shrunken log2 fold change” value was 0.00805. With RRIRSRPPRLPRPRPRPIQLPRP the “shrunken log2 fold change” value was -0.238. In the case of RRIRSRPPRLPRPRPRPIRMPRP, the “shrunken log2 fold change” value is reported as -0.109. For RRIRSRPPRLPRPRPRPIRTPRP, the “shrunken log2 fold change” value was -0.207. In the case of RRIRSRPPRLPRPRPRPIVCPRP, the “shrunken log2 fold change” value is reported as 0.0317. With RRIRSRPPRLPRPRPRPIVKPRP the “shrunken log2 fold change” value was -0.143. RRIRSRPPRLPRPRPRPIVRPRP was tested, and the “shrunken log2 fold change” value was -0.11. In the case of RRIRSRPPRLPRPRPRPIWFPRP, the “shrunken log2 fold change” value is reported as 0.112. With RRIRSRPPRLPRPRPRPIWHPRP the “shrunken log2 fold change” value was -0.271. With RRIRSRPPRLPRPRPRPIWNPRP the “shrunken log2 fold change” value was -0.316. In the case of RRIRSRPPRLPRPRPRPIYSPRP, the “shrunken log2 fold change” value is reported as 0.101. RRIRSRPPRLPRPRPRPKCLPRP was tested, and the “shrunken log2 fold change” value was 0.0157. For RRIRSRPPRLPRPRPRPKCMPRP, the “shrunken log2 fold change” value was -0.218. RRIRSRPPRLPRPRPRPKDAPRP was tested, and the “shrunken log2 fold change” value was 0.22. RRIRSRPPRLPRPRPRPKDCPRP was tested, and the “shrunken log2 fold change” value was 0.456. With RRIRSRPPRLPRPRPRPKDEPRP the “shrunken log2 fold change” value was 0.382. RRIRSRPPRLPRPRPRPKDQPRP was tested, and the “shrunken log2 fold change” value was 0.232. RRIRSRPPRLPRPRPRPKDWPRP was tested, and the “shrunken log2 fold change” value was 0.21. With RRIRSRPPRLPRPRPRPKESPRP the “shrunken log2 fold change” value was 0.284. In the case of RRIRSRPPRLPRPRPRPKFGPRP, the “shrunken log2 fold change” value is reported as -0.15. RRIRSRPPRLPRPRPRPKGFPRP was tested, and the “shrunken log2 fold change” value was 0.158. With RRIRSRPPRLPRPRPRPKHAPRP the “shrunken log2 fold change” value was 0.143. RRIRSRPPRLPRPRPRPKHDPRP was tested, and the “shrunken log2 fold change” value was -0.0942. For RRIRSRPPRLPRPRPRPKMLPRP, the “shrunken log2 fold change” value was -0.149. In the case of RRIRSRPPRLPRPRPRPKQHPRP, the “shrunken log2 fold change” value is reported as 0.235. For RRIRSRPPRLPRPRPRPKRAPRP, the “shrunken log2 fold change” value was 0.326. RRIRSRPPRLPRPRPRPKTQPRP was tested, and the “shrunken log2 fold change” value was -0.0511. With RRIRSRPPRLPRPRPRPKVDPRP the “shrunken log2 fold change” value was 0.093. In the case of RRIRSRPPRLPRPRPRPKWCPRP, the “shrunken log2 fold change” value is reported as -0.132. With RRIRSRPPRLPRPRPRPKWKPRP the “shrunken log2 fold change” value was -0.0184. RRIRSRPPRLPRPRPRPKWMPRP was tested, and the “shrunken log2 fold change” value was 0.269. For RRIRSRPPRLPRPRPRPLAAPRP, the “shrunken log2 fold change” value was 0.562. In the case of RRIRSRPPRLPRPRPRPLASPRP, the “shrunken log2 fold change” value is reported as 0.0667. RRIRSRPPRLPRPRPRPLCIPRP was tested, and the “shrunken log2 fold change” value was -0.334. RRIRSRPPRLPRPRPRPLCLPRP was tested, and the “shrunken log2 fold change” value was 0.259. With RRIRSRPPRLPRPRPRPLCMPRP the “shrunken log2 fold change” value was -0.242. In the case of RRIRSRPPRLPRPRPRPLCQPRP, the “shrunken log2 fold change” value is reported as -0.135. With RRIRSRPPRLPRPRPRPLEEPRP the “shrunken log2 fold change” value was 0.411. RRIRSRPPRLPRPRPRPLEIPRP was tested, and the “shrunken log2 fold change” value was 0.11. RRIRSRPPRLPRPRPRPLERPRP was tested, and the “shrunken log2 fold change” value was -0.0196. With RRIRSRPPRLPRPRPRPLFCPRP the “shrunken log2 fold change” value was -0.146. RRIRSRPPRLPRPRPRPLFFPRP was tested, and the “shrunken log2 fold change” value was -0.172. For RRIRSRPPRLPRPRPRPLFTPRP, the “shrunken log2 fold change” value was -0.0175. For RRIRSRPPRLPRPRPRPLGKPRP, the “shrunken log2 fold change” value was 2.2. With RRIRSRPPRLPRPRPRPLIHPRP the “shrunken log2 fold change” value was -0.279. With RRIRSRPPRLPRPRPRPLILPRP the “shrunken log2 fold change” value was -0.628. For RRIRSRPPRLPRPRPRPLIMPRP, the “shrunken log2 fold change” value was -0.47. With RRIRSRPPRLPRPRPRPLLWPRP the “shrunken log2 fold change” value was 0.236. For RRIRSRPPRLPRPRPRPLLYPRP, the “shrunken log2 fold change” value was -0.162. With RRIRSRPPRLPRPRPRPLNRPRP the “shrunken log2 fold change” value was -0.246. With RRIRSRPPRLPRPRPRPLPIPRP the “shrunken log2 fold change” value was 0.0503. For RRIRSRPPRLPRPRPRPLPRPRP, the “shrunken log2 fold change” value was 0.741. RRIRSRPPRLPRPRPRPLQQPRP was tested, and the “shrunken log2 fold change” value was 0.553. RRIRSRPPRLPRPRPRPLSGPRP was tested, and the “shrunken log2 fold change” value was -0.0801. With RRIRSRPPRLPRPRPRPLSTPRP the “shrunken log2 fold change” value was -0.369. With RRIRSRPPRLPRPRPRPLTCPRP the “shrunken log2 fold change” value was -0.114. RRIRSRPPRLPRPRPRPLVIPRP was tested, and the “shrunken log2 fold change” value was -0.281. With RRIRSRPPRLPRPRPRPLWFPRP the “shrunken log2 fold change” value was 0.274. With RRIRSRPPRLPRPRPRPLWIPRP the “shrunken log2 fold change” value was -0.497. For RRIRSRPPRLPRPRPRPLWRPRP, the “shrunken log2 fold change” value was 0.303. In the case of RRIRSRPPRLPRPRPRPLWYPRP, the “shrunken log2 fold change” value is reported as -0.327. In the case of RRIRSRPPRLPRPRPRPMAGPRP, the “shrunken log2 fold change” value is reported as 0.119. For RRIRSRPPRLPRPRPRPMGDPRP, the “shrunken log2 fold change” value was 0.00987. In the case of RRIRSRPPRLPRPRPRPMGGPRP, the “shrunken log2 fold change” value is reported as 0.334. RRIRSRPPRLPRPRPRPMHMPRP was tested, and the “shrunken log2 fold change” value was -0.13. In the case of RRIRSRPPRLPRPRPRPMIHPRP, the “shrunken log2 fold change” value is reported as -0.0892. With RRIRSRPPRLPRPRPRPMKWPRP the “shrunken log2 fold change” value was 0.053. RRIRSRPPRLPRPRPRPMPMPRP was tested, and the “shrunken log2 fold change” value was 0.0988. For RRIRSRPPRLPRPRPRPMPYPRP, the “shrunken log2 fold change” value was -0.278. RRIRSRPPRLPRPRPRPMQAPRP was tested, and the “shrunken log2 fold change” value was 0.0325. RRIRSRPPRLPRPRPRPMRPPRP was tested, and the “shrunken log2 fold change” value was 0.787. RRIRSRPPRLPRPRPRPMTMPRP was tested, and the “shrunken log2 fold change” value was -0.245. With RRIRSRPPRLPRPRPRPMTRPRP the “shrunken log2 fold change” value was 0.381. For RRIRSRPPRLPRPRPRPMTYPRP, the “shrunken log2 fold change” value was 0.132. In the case of RRIRSRPPRLPRPRPRPMVWPRP, the “shrunken log2 fold change” value is reported as 0.0214. With RRIRSRPPRLPRPRPRPMWAPRP the “shrunken log2 fold change” value was 0.00731. With RRIRSRPPRLPRPRPRPMWHPRP the “shrunken log2 fold change” value was -0.332. For RRIRSRPPRLPRPRPRPMYGPRP, the “shrunken log2 fold change” value was -0.844. RRIRSRPPRLPRPRPRPNCLPRP was tested, and the “shrunken log2 fold change” value was -0.28. In the case of RRIRSRPPRLPRPRPRPNCRPRP, the “shrunken log2 fold change” value is reported as -0.0318. In the case of RRIRSRPPRLPRPRPRPNDCPRP, the “shrunken log2 fold change” value is reported as -0.00188.
